Test results as given in patent US20170292963A1.

Target: Mouse BACE1 (beta amyloid precursor protein cleavage enzyme 1), native protein in mouse brain lysate or neurons (mouse) (UniProt P56818)
Test: cell-based or functional assay

Sequence of Mouse BACE1 (beta amyloid precursor protein cleavage enzyme 1), native protein in mouse brain lysate or neurons (mouse) (P56818 46-501 limits assumed): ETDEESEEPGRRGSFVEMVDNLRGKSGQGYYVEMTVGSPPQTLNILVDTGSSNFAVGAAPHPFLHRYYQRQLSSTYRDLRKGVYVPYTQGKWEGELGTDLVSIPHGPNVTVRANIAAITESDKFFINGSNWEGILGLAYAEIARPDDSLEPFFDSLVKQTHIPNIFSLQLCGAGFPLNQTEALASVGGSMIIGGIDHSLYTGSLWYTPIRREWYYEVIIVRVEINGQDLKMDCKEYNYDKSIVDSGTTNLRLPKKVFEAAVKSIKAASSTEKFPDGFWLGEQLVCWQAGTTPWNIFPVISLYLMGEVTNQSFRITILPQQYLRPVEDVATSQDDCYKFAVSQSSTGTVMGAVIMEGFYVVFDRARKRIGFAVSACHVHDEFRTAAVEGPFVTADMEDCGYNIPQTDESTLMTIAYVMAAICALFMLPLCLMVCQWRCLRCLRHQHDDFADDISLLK

For “Mouse NPTX1 (Neuronal Pentraxin 1), native protein in mouse brain lysate or neurons (from UniProt Q62443 23-432)”, the BACE1 internalized within 12 min at 37 C as percent of surface expression, NPTX1-/- neurons (surface biotinylation assay) was 95%, the BACE1 internalized within 12 min at 37 C as percent of surface expression, WT neurons (surface biotinylation assay) was 37.5% and the hAβ40 in media of hAPP/NPTX1-/- neurons compared to hAPP neurons (ELISA) was 2 fold.
